# Experimental data reported in paper PMC9949253 (2023).
# Biological target: BTN3A1 full intracellular domain (BFI) (Homo sapiens, UniProt O00481)
# Assay: ITC
# BTN3A1 full intracellular domain (BFI), sequence (O00481 272-513): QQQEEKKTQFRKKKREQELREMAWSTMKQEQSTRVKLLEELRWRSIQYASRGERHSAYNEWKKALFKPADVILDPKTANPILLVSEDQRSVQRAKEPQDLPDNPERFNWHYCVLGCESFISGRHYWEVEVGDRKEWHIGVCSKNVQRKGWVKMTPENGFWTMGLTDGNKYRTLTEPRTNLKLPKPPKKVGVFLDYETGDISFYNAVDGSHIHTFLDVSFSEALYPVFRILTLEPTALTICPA
row,Kd [µM],Binder
1,0.78,"BTN2A1 ID271 (protein, HMBPP) KLQKEKKILSGEKEFERETREIALKELEKERVQKEEELQVKEKLQEELRWRRTFLHAVDVVLDPDTAHPDLFLSEDRRSVRRCPFRHLGESVPDNPERFDSQPCVLGRESFASGKHYWEVEVENVIEWTVGVCRDSVERKGEVLLIPQNGFWTLEMHKGQYRAVSSPDRILPLKESLCRVGVFLDYEAGDVSFYNMRDRSHIYTCPRSAFSVPVRPFFRLGCEDSPIFICPALTGANGVTVPEEGLTLHRVGTHQSL"
2,190,"BTN2A1 ID271 (protein, 4-M-HMBPP) KLQKEKKILSGEKEFERETREIALKELEKERVQKEEELQVKEKLQEELRWRRTFLHAVDVVLDPDTAHPDLFLSEDRRSVRRCPFRHLGESVPDNPERFDSQPCVLGRESFASGKHYWEVEVENVIEWTVGVCRDSVERKGEVLLIPQNGFWTLEMHKGQYRAVSSPDRILPLKESLCRVGVFLDYEAGDVSFYNMRDRSHIYTCPRSAFSVPVRPFFRLGCEDSPIFICPALTGANGVTVPEEGLTLHRVGTHQSL"
